Reference: patent US20030017489

Biological target: recombinant Histone H3

B1: hCARM-1 (SEQ ID NO:9) (protein)
chain: MAAAAAAVGPGAGGAGSAVPGGAGPCATVSVFPGARLLTIGDANGEIQRHAEQQALRLEVRAGPDSAGIALYSHEDVCVFKCSVSRETECSRVGKQSFIITLGCNSVLIQFATPNDFCSFYNILKTCRGHTLERSVFSERTEESSAVQYFQFYGYLSQQQNMMQDYVRTGTYQRAILQNHTDFKDKIVLDVGCGSGILSFFAAQAGARKIYAVEASTMAQHAEVLVKSNNLTDRIVVIPGKVEEVSLPEQVDIIISEPMGYMLFNERMLESYLHAKKYLKPSGNMFPTIGDVHLAPFTDEQLYMEQFTKANFWYQPSFHGVDLSALRGAAVDEYFRQPVVDTFDIRILMAKSVKYTVNFLEAKEGDLHRIEIPFKFHMLHSGLVHGLAFWFDVAFIGSIMTVWLSTAPTEPLTHWYQVRCLFQSPLFAKAGDTLSGTCLLIANKRQSYDISIVAQVDQTGSKSSNLLDLKNPFFRYTGTTPSPPPGSHYTSPSENMWNTGSTYNLSSGMAVAGMPTAYDLSSVIASGSSVGHNNLIPLANTGIVNHTHSRMGSIMSTGIVQGSSGAQGSGGGSTSAHYAVNSQFTMGGPAISMASPMSIPTNTMHYGS
  methylation of Histone H3 (in vitro methylation reaction, SDS-PAGE, exposed to film): Our experiments showed that hCARM-1 methylates Histone H3 efficiently
